# Test results taken from US8247535B2, “Directed evolution of GRG31 EPSP synthase enzyme” (Athenix Corp., priority 2008, dated 2012).
# Changes are numbered by the printed parent chain.
# B1: GRG31pm3a11: GRG31 Q-loop library 1 variant, SEQ ID NO:7 (protein)
# chain: MNQQVITLTHPSKKIQGTVQLTGSKSESNRALIIQSLSKGQVEIANLSEAADTVTLNRVLQIASDPKPGFNTIDCGNAGTSVRFLTGFLNLVKGNFILTGTERMQQRPIGILVDAMKEIGADIHYDKKVGYPPLKIEGGLFQEKDRVKIKGNISSQYISALLLIAPALKKGLTLEIEGELTSRPYVSMTLDMLKSVGIQHEWKNNAIKIAPQAFEKQTIYVEPDWSAASYWYAIAALADANASIVLPGLRKNSLQGDIAIISIMEHFGVQSSFESDGLHLNKKVIGSDVSLFNFKECPDLAQTVVVVAAALKRDVSFTGLETLKIKETDRIAALQKEIAKFGAELIEDGDTYHLKTAQVYQPEEVTFDTYEDHRMAMAFAPLALVFDQIKIAEPQVVEKSYPDFWNHLQAQAFVIE
# modifications: GRG31 variant (clone GRG31pm3a11)
# B2: L3P2b11 + 6b2: GRG31 variant P77→Q; A81→S; M82→L; Y88→F; N95→S, A206→V, SEQ ID NO:26 (protein)
# chain: B1 chain with C75I, N77Q, V82L, G87A, N95S, A206V
# modifications: GRG31 variant (L3P2b11+6b2)
# B3: L4e11: GRG31 variant I75→C; A78→S; Y88→H, SEQ ID NO:16 (protein)
# chain: B1 chain with N77P, A78S, S81A, V82M, G87A, F88H
# modifications: GRG31 variant (clone 4e11)
# B4: GRG31pm3d3: GRG31 Q-loop library 1 variant, SEQ ID NO:12 (protein)
# chain: B1 chain with G76D, N77A, S81A, V82T, G87A
# modifications: GRG31 variant (clone GRG31pm3b3)
# B5: L3P2b11: GRG31 variant P77→Q; A81→S; M82→L; Y88→F, SEQ ID NO:13 (protein)
# chain: B1 chain with C75I, N77Q, V82L, G87A
# modifications: GRG31 variant (clone L3P2b11)
# B6: L3P2c11: GRG31 variant Y88→F, SEQ ID NO:14 (protein)
# chain: B1 chain with C75I, N77P, S81A, V82M, G87A
# modifications: GRG31 variant (clone L3P2c11)
# B7: L5e3: GRG31 variant P77→T, SEQ ID NO:17 (protein)
# chain: B1 chain with C75I, N77T, S81A, V82M, G87A, F88Y
# modifications: GRG31 variant (clone L5e3)
# B8: GRG31pm3a8: GRG31 Q-loop library 1 variant, SEQ ID NO:9 (protein)
# chain: B1 chain with N77P, S81G, G87A
# modifications: GRG31 variant (clone GRG31pm3a8)
# B9: L3P2b11 + triple EK: GRG31 variant P77→Q; A81→S; M82→L; Y88→F; N95→S, A206→V; E215→K, SEQ ID NO:24 (protein)
# chain: B1 chain with C75I, N77Q, V82L, G87A, N95S, A206V, E215K
# modifications: GRG31 variant (L3P2b11+triple EK)
# B10: GRG31pm3b8: GRG31 variant I75→C; P77→N; M82→T, SEQ ID NO:10 (protein)
# chain: B1 chain with S81A, V82T, G87A, F88Y
# modifications: GRG31 variant (clone GRG31pm3b8)
# B11: GRG31pm3a6: GRG31 Q-loop library 1 variant, SEQ ID NO:8 (protein)
# chain: B1 chain with V82M, G87A, F88V
# modifications: GRG31 variant (clone GRG31pm3a6)
# B12: L3P2c11 + 6e7: GRG31 variant Y88→F; E215→K, SEQ ID NO:21 (protein)
# chain: B1 chain with C75I, N77P, S81A, V82M, G87A, E215K
# modifications: GRG31 variant (L3P2c11+6e7)
# B13: L3P2c11 + triple EK: GRG31 variant Y88→F; N95→S, A206→V; E215→K, SEQ ID NO:23 (protein)
# chain: B1 chain with C75I, N77P, S81A, V82M, G87A, N95S, A206V, E215K
# modifications: GRG31 variant (L3P2c11+triple EK)
# B14: L3P2c11 + 6b2: GRG31 variant Y88→F; N95→S, A206→V, SEQ ID NO:25 (protein)
# chain: B1 chain with C75I, N77P, S81A, V82M, G87A, N95S, A206V
# modifications: GRG31 variant (L3P2c11+6b2)
# B15: GRG31pm3b9: GRG31 Q-loop library 1 variant, SEQ ID NO:11 (protein)
# chain: B1 chain with G76D, N77A, V82M, T86A, G87A, F88Y
# modifications: GRG31 variant (clone GRG31pm3b9)
# B16: L3P2b11 + 6e7: GRG31 variant P77→Q; A81→S; M82→L; Y88→F; E215→K, SEQ ID NO:22 (protein)
# chain: B1 chain with C75I, N77Q, V82L, G87A, E215K
# modifications: GRG31 variant (L3P2b11+6e)
# Key:
# Assay type in all cases: biochemical
# [1] = test system: GRG31 EPSP synthase; assay: Extract prescreens of library clones at a few glyphosate and PEP concentrations; settings: for activity in glyphosate prescreen / activity at low PEP concentrations: extracts; for activity in glyphosate prescreen: 0, 1, and 2 mM glyphosate, among 31 resistant clones; for activity at low PEP concentrations: 0, 20, 50, and 100 μM PEP, among six clones; for combination of glyphosate resistance and activity at low PEP concentrations: library 3, 0 and 0.2 mM glyphosate, 0, 20, and 50 μM PEP
# Description: Library 1 was cloned into pAX3625 and 130,000 clones were plated onto plates containing 50 mM glyphosate. […] Extracts were prepared and assessed for glyphosate resistance by assaying activity in the presence of a small number of glyphosate concentrations (0, 1, and 2 mM glyphosate).
# Extracts from these six clones were assayed for activity at a range of PEP concentrations (0, 20, 50, and 100 μM PEP).
# One hundred and fifteen thousand (115,000) clones were plated onto plates containing 50 mM glyphosate and 384 glyphosate resistant clones were picked for sequencing. […] A Ki assessment of the unique clones was carried out by testing activity at 0 and 0.2 mM glyphosate. […] An assessment of the Km of protein encoded by these nine clones was performed by comparing activity at 0, 20, and 50 μM PEP.
# [2] = target: GRG31 EPSP synthase; assay: Kinetic analysis of GRG31 variants (Ki for glyphosate, Km for PEP, Vmax); parameters: Vmax: unit not given here; settings: for Ki: Ki for glyphosate, calculated from plot of Km(app) vs. glyphosate concentration; for Km: Km for PEP; for Vmax: unit not given; for improvement in Ki for glyphosate relative to GRG31 / Vmax relative to GRG31 / improvement in Km for PEP relative to GRG31: relative to GRG31, in words; for Vmax improvement over the GRG31(L3P2c11) protein: relative to GRG31(L3P2c11), in words
# Description: GRG31 variants L3P2b11, L3P2c11 and L4e11, and L5e3 were characterized by enzymatic assays as described herein, and compared to the native GRG31 enzyme. For each enzyme the apparent Km (Km(app)) was determined at each of several glyphosate concentrations, and a plot of Km(app) vs. glyphosate concentration was used to calculate the Ki for each enzyme. The thermostability for each enzyme was assessed by incubating the enzyme at 37° C. for 16 hours, and then quantifying the enzymatic activity remaining (as Vmax) vs. control enzyme that was incubated at 4° C.
# [3] = test system: GRG31 EPSP synthase; settings: for thermostability at 37° C. compared with GRG31: survival of activity at 37° C., in words
# Description: The thermostability of several variants of GRG31 was analyzed by measuring survival of activity at 37° C.
Molecule,activity in glyphosate prescreen [1],Ki [2],Km [2],Vmax [2],improvement in Ki for glyphosate relative to GRG31 [2],other results
B1,best activity,–,–,–,–,activity at low PEP concentrations [1]: best activity at low PEP concentrations
B2,–,628 µM,8 µM,0.59,–,–
B3,–,389 µM,12.4 µM,3.5,improved,–
B4,best activity,–,–,–,–,–
B5,–,983 µM,11 µM,5.7,improved,combination of glyphosate resistance and activity at low PEP concentrations [1]: best combination of glyphosate resistance and activity at low PEP concentrations
B6,–,715 µM,39.6 µM,5.3,improved,combination of glyphosate resistance and activity at low PEP concentrations [1]: best combination of glyphosate resistance and activity at low PEP concentrations
B7,–,507 µM,11.4 µM,3.6,–,t1/2 at 37° C. [3]: 10.8 h; thermostability at 37° C. compared with GRG31 [3]: improved thermostability
B8,best activity,–,–,–,–,–
B9,–,606 µM,12.3 µM,0.72,–,–
B10,best activity,116 µM,–,–,–,activity at low PEP concentrations [1]: best activity at low PEP concentrations
B11,best activity,–,–,–,–,–
B12,–,416 µM,8.6 µM,23.5,more than four-fold,Vmax improvement over the GRG31(L3P2c11) protein [2]: about four to five-fold; Vmax relative to GRG31 [2]: approximately equal to that of GRG31; improvement in Km for PEP relative to GRG31 [2]: approximately two-fold
B13,–,298 µM,12.6 µM,14.4,–,t1/2 at 37° C. [3]: 2.7 h; thermostability at 37° C. compared with GRG31 [3]: thermostability equivalent to GRG31
B14,–,405 µM,7.9 µM,23.4,more than four-fold,Vmax improvement over the GRG31(L3P2c11) protein [2]: about four to five-fold; Vmax relative to GRG31 [2]: approximately equal to that of GRG31; improvement in Km for PEP relative to GRG31 [2]: approximately two-fold; t1/2 at 37° C. [3]: 3.5 h; thermostability at 37° C. compared with GRG31 [3]: improved thermostability
B15,best activity,–,–,–,–,–
B16,–,1010 µM,10.3 µM,0.86,–,–
